The record followed here is patent US20190010242A1 (INHIBRX, published 2019).

One assay has as its target T1, B7H3 on A375 cells (UniProt Q5ZPR3 29-534, limits assumed).
T1 construct: whole, on cells; also called BH73
T1 sequence (looked up): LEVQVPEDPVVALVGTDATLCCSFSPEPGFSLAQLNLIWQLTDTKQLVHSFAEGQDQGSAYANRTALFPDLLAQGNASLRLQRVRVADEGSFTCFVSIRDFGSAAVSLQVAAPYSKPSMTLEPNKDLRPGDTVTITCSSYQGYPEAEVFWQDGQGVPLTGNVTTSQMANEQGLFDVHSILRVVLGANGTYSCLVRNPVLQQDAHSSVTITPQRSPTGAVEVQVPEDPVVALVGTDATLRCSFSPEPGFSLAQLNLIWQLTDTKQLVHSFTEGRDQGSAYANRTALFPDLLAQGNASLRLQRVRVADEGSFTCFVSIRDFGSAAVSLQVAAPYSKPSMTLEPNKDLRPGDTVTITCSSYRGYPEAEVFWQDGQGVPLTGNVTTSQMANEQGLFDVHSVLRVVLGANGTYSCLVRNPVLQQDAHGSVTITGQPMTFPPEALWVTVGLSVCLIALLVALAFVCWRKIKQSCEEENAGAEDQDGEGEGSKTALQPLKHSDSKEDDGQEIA
As to the kind of experiment: flow cytometry on A375 cells. Background: In flow cytometry, cells or beads pass a laser one at a time.

Assay [1] addresses T2, CD3 on the surface of primary human T cells (human, UniProt P07766 23-207).
T2 construct: whole, on cells; CD3 is a multi-chain complex; also called CD3ε
As to the kind of experiment: flow cytometry on primary human T cells.

Assay [2] addresses T2, CD3 on the surface of primary human T …. As to the kind of experiment: flow cytometry on primary human T cells (FIGS. 14C and 14D).

T2 sequence (P07766 23-207): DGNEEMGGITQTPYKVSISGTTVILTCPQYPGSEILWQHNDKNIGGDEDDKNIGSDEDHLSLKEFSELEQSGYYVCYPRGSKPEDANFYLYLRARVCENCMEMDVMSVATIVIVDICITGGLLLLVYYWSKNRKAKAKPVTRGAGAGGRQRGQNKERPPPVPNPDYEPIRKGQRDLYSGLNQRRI

B1: Dual-affinity Re-targeting Antibody (DART)-monomeric Fc format targeting B7H3 and CD3 (bispecific antibody)
chain 1: DIQLTQSPSFLSASVGDRVTITCKASQNVDTNVAWYQQKPGKAPKALIYSASYRYSGVPSRFSGSGSGTDFTLTISSLQPEDFATYYCQQYNNYPFTFGQGTKLEIKGGGSGGGGEVQLVESGGGLVQPGGSLRLSCAASGFTFSTYAMNWVRQAPGKGLEWVGRIRSKYNNYATYYADSVKDRFTISRDDSKNSLYLQMNSLKTEDTAVYYCVRHGNFGNSYVSWFAYWGQGTLVTVSSGGCGGGEVAALEKEVAALEKEVAALEKEVAALEKGGGDKTHTCPPCPAPEAAGGPSVFLFPPKPKDTLMISRTPEVTCVVVDVSHEDPEVKFNWYVDGVEVHNAKTKPREEQYNSTYRVVSVLTVLHQDWLNGKEYKCKVSNKALPAPIEKTISKAKGQPREPQVYTLPPSREEMTKNQVSLWCLVKGFYPSDIAVEWESNGQPENNYKTTPPVLDSDGSFFLYSKLTVDKSRWQQGNVFSCSVMHEALHNHYTQKSLSLSPGK
chain 2: QAVVTQEPSLTVSPGGTVTLTCRSSTGAVTTSNYANWVQQKPGQAPRGLIGGTNKRAPWTPARFSGSLLGGKAALTITGAQAEDEADYYCALWYSNLWVFGGGTKLTVLGGGGSGGGGEVQLVESGGGLVQPGGSLRLSCAASGFTFSSFGMHWVRQAPGKGLEWVAYISSDSSAIYYADTVKGRFTISRDNAKNSLYLQMNSLRDEDTAVYYCGRGRENIYYGSRLDYWGQGTTVTVSSGGCGGGKVAALKEKVAALKEKVAALKEKVAALKE
chain 3: not shown
notes: also called DART-Fc B7H3×CD3; DART-Fc
Take B1: the binding result (with B7H3 on A375 cells; in assay [1]) was “binds” throughout.

B2: cx3309 (CD20-targeting constrained CD3 engaging construct, GA101 scFvs) (bispecific antibody)
chain 1: not shown
chain 2: DKTHTCPPCPAPELLGGPSVFLFPPKPKDTLMISRTPEVTCVVVDVSHEDPEVKFNWYVDGVEVHNAKTKPREEQYNSTYRVVSVLTVLHQDWLNGKEYKCKVSNKALPAPIEKTISKAKGQPREPQVYTLPPCRDELTKNQVSLWCLVKGFYPSDIAVEWESNGQPENNYKTTPPVLDSDGSFFLYSKLTVDKSRWQQGNVFSCSVMHEALHNHYTQKSLSLSPTGGSGGGGIEPDIGGSGGSEVQLVESGGGLVQPGGSLRLSCAASGFTFNTYAMNWVRQAPGKCLEWVARIRSKYNNYATYYADSVKGRFTISRDDAKNTLYLQMSSLRAEDTAVYYCVRHGNFGNSYVSWFAYWGQGTLVTVKP
scFv: QVQLVQSGAEVKKPGSSVKVSCKASGYAFSYSWINWVRQAPGQGLEWMGRIFPGDGDTDYNGKFKGRVTITADKSTSTAYMELSSLRSEDTAVYYCARNVFDGYWLVYWGQGTLVTVSGSGGGGSGGGGTGGGGSDIVMTQTPLSLPVTPGEPASISCRSSKSLLHSNGITYLYWYLQKPGQSPQLLIYQMSNLVSGVPDRFSGSGSGTDFTLKISRVEAEDVGVYYCAQNLELPYTFGGGTKVEIK
notes: also called cx3490
On to B2, for which the binding result in assay [1] is on record as “no binding (tested: 100 nM)”.

B3: cx3313 (B7H3-targeting constrained CD3 engager, B7H3 Fab) (bispecific antibody)
chain 1: not shown
chain 2: DKTHTCPPCPAPELLGGPSVFLFPPKPKDTLMISRTPEVTCVVVDVSHEDPEVKFNWYVDGVEVHNAKTKPREEQYNSTYRVVSVLTVLHQDWLNGKEYKCKVSNKALPAPIEKTISKAKGQPREPQVYTLPPCRDELTKNQVSLWCLVKGFYPSDIAVEWESNGQPENNYKTTPPVLDSDGSFFLYSKLTVDKSRWQQGNVFSCSVMHEALHNHYTQKSLSLSPTGGSGGGGIEPDIGGSGGSEVQLVESGGGLVQPGGSLRLSCAASGFTFNTYAMNWVRQAPGKCLEWVARIRSKYNNYATYYADSVKGRFTISRDDAKNTLYLQMSSLRAEDTAVYYCVRHGNFGNSYVSWFAYWGQGTLVTVKP
heavy: EVQLVESGGGLVQPGGSLRLSCAASGFTFSSFGMHWVRQAPGKGLEWVAYISSDSSAIYYADTVKGRFTISRDNAKNSLYLQMNSLRDEDTAVYYCGRGRENIYYGSRLDYWGQGTTVTVSSASTKGPSVFPLAPSSKSTSGGTAALGCLVKDYFPEPVTVSWNSGALTSGVHTFPAVLQSSGLYSLSSVVTVPSSSLGTQTYICNVNHKPSNTKVDKKVEPKSC
light: DIQLTQSPSFLSASVGDRVTITCKASQNVDTNVAWYQQKPGKAPKALIYSASYRYSGVPSRFSGSGSGTDFTLTISSLQPEDFATYYCQQYNNYPFTFGQGTKLEIKRTVAAPSVFIFPPSDEQLKSGTASVVCLLNNFYPREAKVQWKVDNALQSGNSQESVTEQDSKDSTYSLSSTLTLSKADYEKHKVYACEVTHQGLSSPVTKSFNRGEC
notes: also called cx3313 FAB
B3: in assay [2], the binding result is on record as “no binding”.

B4: cx3314 (B7H3-targeting constrained CD3 engager, B7H3 scFv) (bispecific antibody)
chain 1: not shown
chain 2: DKTHTCPPCPAPELLGGPSVFLFPPKPKDTLMISRTPEVTCVVVDVSHEDPEVKFNWYVDGVEVHNAKTKPREEQYNSTYRVVSVLTVLHQDWLNGKEYKCKVSNKALPAPIEKTISKAKGQPREPQVYTLPPCRDELTKNQVSLWCLVKGFYPSDIAVEWESNGQPENNYKTTPPVLDSDGSFFLYSKLTVDKSRWQQGNVFSCSVMHEALHNHYTQKSLSLSPTGGSGGGGIEPDIGGSGGSEVQLVESGGGLVQPGGSLRLSCAASGFTFNTYAMNWVRQAPGKCLEWVARIRSKYNNYATYYADSVKGRFTISRDDAKNTLYLQMSSLRAEDTAVYYCVRHGNFGNSYVSWFAYWGQGTLVTVKP
scFv: EVQLVESGGGLVQPGGSLRLSCAASGFTFSSFGMHWVRQAPGKGLEWVAYISSDSSAIYYADTVKGRFTISRDNAKNSLYLQMNSLRDEDTAVYYCGRGRENIYYGSRLDYWGQGTTVTVSSSGGGGSGGGGSGGGGSDIQLTQSPSFLSASVGDRVTITCKASQNVDTNVAWYQQKPGKAPKALIYSASYRYSGVPSRFSGSGSGTDFTLTISSLQPEDFATYYCQQYNNYPFTFGQGTKLEIK
notes: also called cx3314 scFv
Regarding B4, the binding result in assay [2] is listed as “no binding”.
